Assay results: article PMC7072344, “Structure–Activity Relationship of HER2 Receptor Targeting Peptide and Its Derivatives in Targeted Tumor Therapy” (Biomolecules, 2020)

Target: T1, human epidermal growth factor 2 (HER2) receptor (human (endogenous in MDA-MB-453, …, UniProt P04626 23-1255))
T1 construct: HER2 (ErbB2), 185 kDa transmembrane glycoprotein, endogenous on human breast cancer cell lines; No isolated HER2 was tested; also called ErbB2; source: endogenous, on MDA-MB-453 breast cancer cells (highest HER2 expression); also on MDA-MB-435 Br and MCF-7 cells (medium HER2 expression)
Test: flow cytometry on cells; MDA-MB-453 cells incubated with CF-labelled peptides, 12.5 µM, 3 h, 37 °C, 5 min trypsinization; read-out percentage of CF+ live cells and mean fluorescence intensity
Conditions: one partner purified

B1: CF-KAAYSLGYYNPT-NH2 (peptide)
peptide: {5(6)‑carboxyfluorescein}-KAAYSLGYYNPT-NH2
notes: combined peptide: KAAYSL followed by GYYNPT; also called cP(AA)_P(YY); cP(AA)_(YY); source: synthetic peptide (Fmoc/tBu solid phase, RP-HPLC purified)
- fold increase of mean fluorescence intensity over P(AA): ~10 fold
